In paper PMC8042448 (The Journal of Biological Chemistry, 2021):

B1: recombinant full-length human prion protein huPrP(23–230) (natural protein)
chain: not shown
notes: also called full-length huPrP
B2: C-terminally truncated human prion protein huPrP(23–144) (domain or fragment)
chain: KKRPKPGGWNTGGSRYPGQGSPGGNRYPPQGGGGWGQPHGGGWGQPHGGGWGQPHGGGWGQPHGGGWGQGGGTHSQWNKPSKPKTNMKHMAGAAAAGAVVGGLGGYMLGSAMSRPIIHFGSD
notes: also called N-terminal construct huPrP(23–144); huPrP(23–144)exc

Assays:
Settings in all cases: both partners purified
[1] = biological target: T1, amyloid β (1–42) oligomers (UniProt P05067 672-713); assay: […] (40–80 μM) […] (160–300 μM) in 30 mM Tris-HCl pH 7.4; […]
T1 construct: also called Aβ(1–42)_(oligo); Aβ_(oligo)

[2] = biological target: T1, amyloid β (1–42) oligomers; assay: co-sedimentation
[3] = biological target: T1, amyloid β (1–42) oligomers; assay: […]) in 30 mM Tris-HCl pH 7.4; […]

Binder	binding result [1]	stoichiometry N [2]	stoichiometry N [3]
B1	binds	–	–
B2	–	3.7	8.6
